How the values were obtained:
purified protein [1] = substrate: NC(=O)C1=CN([C@@H]2O[C@H](COP(=O)(O)OP(=O)(O)OC[C@H]3O[C@@H](n4cnc5c(N)ncnc54)[C@H](O)[C@@H]3O)[C@@H](O)[C@H]2O)C=CC1; assay: purified protein; details: varied: cofactor
purified protein [2] = substrate: NC(=O)C1=CN([C@@H]2O[C@H](COP(=O)(O)OP(=O)(O)OC[C@H]3O[C@@H](n4cnc5c(N)ncnc54)[C@H](OP(=O)(O)O)[C@@H]3O)[C@@H](O)[C@H]2O)C=CC1; assay: purified protein; details: varied: cofactor

B1: SMFMO (Stenotrophomonas maltophilia K279a) (protein)
chain: MDSVDVVVIGGGQSGLSAGYFLRRSGLSYVILDAEASPGGAWQHAWHSLHLFSPAGWSSIPGWPMPASQGPYPARAEVLAYLAQYEQKYALPVLRPIRVQRVSHFGERLRVVARDGRQWLARAVISATGTWGEAYTPEYQGLESFAGIQLHSAHYSTPAPFAGMRVAIIGGGNSGAQILAEVSTVAETTWITQHEPAFLADDVDGRVLFERATERWKAQQEGREPDLPPGGFGDIVMVPPVLDARARGVLAAVPPPARFSPTGMQWADGTERAFDAVIWCTGFRPALSHLKGLDLVTPQGQVEVDGSGLRALAVPSVWLLGYGDWNGMASATLIGVTRYAREAVRQVTAYCADHQDR
Km (purified protein [1]): 23.7 ± 9.1 M x 10^-6 | kcat (purified protein [1]): 0.029 ± 0.003 s⁻¹ | kcat/Km (purified protein [1]): 1220 M⁻¹ s⁻¹ | Km (purified protein [2]): 27.3 ± 5.3 M x 10^-6 | kcat (purified protein [2]): 0.022 ± 0.002 s⁻¹ | kcat/Km (purified protein [2]): 805 M⁻¹ s⁻¹

From article PMC3829993
